Measured values from the supplement of paper PMC10724198.
± gives the standard deviation of the averaged measurements.
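Further: PSI is a weighted mean of sequencing reads over stability bins, variants kept only with over 10 reads, mCherry proximal and sfGFP distal, peptide attached via GGGS linker.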

What follows are sequences tested on Saccharomyces cerevisiae (assay: protein stability index of tFT-peptide fusion (C-terminal peptide) (PSI (0-1 scale)); higher = more stable (slower turnover)). Details: genetic background: wild type; temperature: 30 C.
Procedure: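 Multiplexed protein stability (MPS) profiling in S. cerevisiae. Random 12-aa peptides (tFT-X12 library) are fused to the C-terminus of a sfGFP-mCherry tandem fluorescent timer, after mCherry and a GGGS linker. Cells are FACS-sorted into 8 mCherry/sfGFP bins and deep-sequenced. The protein stability index (PSI) is the read-weighted bin average, scaled from 0 (unstable) to 1 (stable). Only peptides with >10 reads are reported; cells were grown at 30 °C in SC-His with glucose.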
AAALPSNLLSSF gave a protein stability index of 0.656 ± 0.017.
AACSCGCLTGVG gave a protein stability index of 0.527 ± 0.012.
Sequence AALVFPSCVVGG has a protein stability index of 0.60949 ± 0.00034.
For AAPAAPATPSPR, the protein stability index was 0.716 ± 0.065.
In the case of AAPDSGTPPLAA, the protein stability index is reported as 0.6435 ± 0.0043.
In the case of AAPPAYGPPPPP, the protein stability index is reported as 0.6974 ± 0.0025.
With AARWHEPLSRER the protein stability index was 0.699 ± 0.029.
With AAVRGAYPDSEG the protein stability index was 0.64 ± 0.043.
AAWPYKYYLAHI gave a protein stability index of 0.617 ± 0.061.
ACGLGGPSDIDN showed a protein stability index of 0.672 ± 0.013.
Work on ACGSRGGQTERP yielded a protein stability index of 0.7143 ± 0.0066.
ACPPRPPFRSPS gave a protein stability index of 0.698 ± 0.026.
ADKIPHSDNRSR showed a protein stability index of 0.697 ± 0.01.
For ADLTTPHPDPRP, the protein stability index was 0.674 ± 0.0096.
With AEKKEERQRTSN the protein stability index was 0.681 ± 0.032.
AEKSYRYIYGKT gave a protein stability index of 0.669 ± 0.029.
AELVVRNGVGGI gave a protein stability index of 0.831 ± 0.077.
For AERARRERRGGV, the protein stability index was 0.712 ± 0.1.
Sequence AERKTKASRRKE has a protein stability index of 0.654 ± 0.019.
In the case of AESCRASVVFGV, the protein stability index is reported as 0.6849 ± 0.0041.
With AESLGLNYGSVY the protein stability index was 0.657 ± 0.05.
AFCFCIFSSFLV was tested, and the protein stability index was 0.535 ± 0.021.
In the case of AFFLHKTFRSSF, the protein stability index is reported as 0.732 ± 0.028.
Sequence AFGSVSLSCLWV has a protein stability index of 0.676 ± 0.073.
For AFPSLRSLPLFS, the protein stability index was 0.608 ± 0.024.
AFPSPPATPSSQ gave a protein stability index of 0.645 ± 0.079.
For AFRCGGAPGDFA, the protein stability index was 0.654 ± 0.0094.
Sequence AFRISLSCPISL has a protein stability index of 0.619 ± 0.056.
AFTPGTTVYVSQ gave a protein stability index of 0.699 ± 0.037.
AFYGDNNTVERM showed a protein stability index of 0.762 ± 0.053.
For AGAGLGGVLGWW, the protein stability index was 0.671 ± 0.02.
AGARPEGPRWGE showed a protein stability index of 0.703 ± 0.021.
With AGESPDLSARCG the protein stability index was 0.661 ± 0.11.
In the case of AGFCRVFSYDFV, the protein stability index is reported as 0.708 ± 0.04.
AGGAASWPAFFP was tested, and the protein stability index was 0.793 ± 0.02.
For AGGGARLGVGRA, the protein stability index was 0.637 ± 0.065.
Work on AGGGLGAEGCGG yielded a protein stability index of 0.788 ± 0.038.
For AGGGLGGGGGGP, the protein stability index was 0.729 ± 0.031.
AGGLCEGGWRGR gave a protein stability index of 0.6885 ± 0.0035.
AGGQRCNWGNTI showed a protein stability index of 0.6778 ± 0.0053.
AGGRGVPSMGNG showed a protein stability index of 0.644 ± 0.033.
In the case of AGGVEGRRRVGE, the protein stability index is reported as 0.642 ± 0.073.
AGHFITRTGGPT showed a protein stability index of 0.7 ± 0.07.
Sequence AGHFRVRWGVWS has a protein stability index of 0.651 ± 0.056.
AGHILSDGTYLP showed a protein stability index of 0.826 ± 0.13.
AGISSLLVQSVP showed a protein stability index of 0.679 ± 0.049.
Sequence AGMRRRGGAGGW has a protein stability index of 0.684 ± 0.052.
With AGPAIEGARAPR the protein stability index was 0.7684 ± 0.0022.
Sequence AGPATSSSPPVS has a protein stability index of 0.688 ± 0.032.
Work on AGPGGSGGAGEP yielded a protein stability index of 0.68 ± 0.026.
With AGQWGCAGGGEW the protein stability index was 0.703 ± 0.013.
In the case of AGRRASGRVGSG, the protein stability index is reported as 0.728 ± 0.018.
In the case of AGTIRTTPLTAL, the protein stability index is reported as 0.643 ± 0.033.
With AGVTGGDGYGRW the protein stability index was 0.583 ± 0.064.
In the case of AGVVRGGRGVGI, the protein stability index is reported as 0.728 ± 0.025.
With AGWCKGMWVSLG the protein stability index was 0.656 ± 0.036.
AGWKGGTSRGER gave a protein stability index of 0.6618 ± 0.0053.
For AHTPGTHLGRKT, the protein stability index was 0.71 ± 0.0082.
In the case of AICRVGGFGRKD, the protein stability index is reported as 0.717 ± 0.01.
AIIKADKIRRKK gave a protein stability index of 0.6751 ± 0.0028.
AIKCSDTLLTWV gave a protein stability index of 0.7194 ± 0.0042.
Sequence AILSTSHSPWNS has a protein stability index of 0.737 ± 0.053.
With AINAHGISKSYA the protein stability index was 0.688 ± 0.019.
AIRIERLGLAIP was tested, and the protein stability index was 0.682 ± 0.033.
Sequence AIRLFFRSDARG has a protein stability index of 0.618 ± 0.014.
AKEIVYAPRNPD showed a protein stability index of 0.645 ± 0.053.
With AKKKEIQSTKHK the protein stability index was 0.705 ± 0.0093.
AKPPLAPSRNAL gave a protein stability index of 0.656 ± 0.029.
With AKSKALGLSPRS the protein stability index was 0.649 ± 0.046.
AKTQGLLMVTLQ gave a protein stability index of 0.712 ± 0.12.
ALASPIPCPPPP showed a protein stability index of 0.715 ± 0.056.
Sequence ALCEIWQSLLLA has a protein stability index of 0.456 ± 0.13.
Work on ALFLFGSDRFFV yielded a protein stability index of 0.747 ± 0.026.
In the case of ALFNEVFRSLLL, the protein stability index is reported as 0.712 ± 0.054.
For ALFPNALYQTLL, the protein stability index was 0.723 ± 0.05.
ALFTFFSARLTR gave a protein stability index of 0.748 ± 0.044.
ALGGPPLSPSPH was tested, and the protein stability index was 0.7299 ± 0.007.
ALHHPPLPHPRS showed a protein stability index of 0.663 ± 0.084.
In the case of ALIFPLPASSTF, the protein stability index is reported as 0.609 ± 0.038.
Work on ALIYMRGLGRFF yielded a protein stability index of 0.555 ± 0.025.
ALLPLTHLPLHP gave a protein stability index of 0.666 ± 0.1.
In the case of ALLPPPCFFLLP, the protein stability index is reported as 0.673 ± 0.0041.
In the case of ALLPVLPSRPAP, the protein stability index is reported as 0.7431 ± 0.0046.
In the case of ALLRSLSSLPLV, the protein stability index is reported as 0.602 ± 0.011.
Sequence ALLSFVVSSGPA has a protein stability index of 0.675 ± 0.026.
With ALMEFLVFSRCG the protein stability index was 0.642 ± 0.074.
With ALPETKVSRRQS the protein stability index was 0.677 ± 0.11.
Work on ALPIVPDVCFSP yielded a protein stability index of 0.679 ± 0.051.
In the case of ALPPIARPPPRV, the protein stability index is reported as 0.733 ± 0.029.
Work on ALPRAPSRPPAR yielded a protein stability index of 0.67 ± 0.042.
For ALPSALPPLPPP, the protein stability index was 0.723 ± 0.055.
ALRFLISCRLLD gave a protein stability index of 0.62622 ± 0.00026.
For ALRGSYTSFALA, the protein stability index was 0.623 ± 0.066.
For ALSTFTGFLRIP, the protein stability index was 0.55 ± 0.01.
For ALVGMNVQRRRV, the protein stability index was 0.705 ± 0.018.
ALVRVVRGIGFC gave a protein stability index of 0.697 ± 0.062.
ALWWRVGCGVGL showed a protein stability index of 0.657 ± 0.042.
AMAELVCVSLRC showed a protein stability index of 0.536 ± 0.016.
Sequence ANAPPTASFSPP has a protein stability index of 0.6745 ± 0.0014.
Work on ANEAAYICKGNG yielded a protein stability index of 0.682 ± 0.039.
APDPARPSTRPL showed a protein stability index of 0.6892 ± 0.0058.
Work on APGACWKERWVR yielded a protein stability index of 0.737 ± 0.037.
With APGPPLLLPPPL the protein stability index was 0.697 ± 0.1.
Work on APGWNNMALDVD yielded a protein stability index of 0.728 ± 0.021.
APHYPTGPTVKI showed a protein stability index of 0.692 ± 0.033.
For APLLAPPPPSRT, the protein stability index was 0.642 ± 0.009.
Work on APLPPRSALVGL yielded a protein stability index of 0.6759 ± 0.0011.
Work on APPDQPEEGTRA yielded a protein stability index of 0.6332 ± 0.0033.
APPEAPQEPLTL showed a protein stability index of 0.727 ± 0.0092.
For APPFRLLPLPSP, the protein stability index was 0.7573 ± 0.005.
APPLSLPPRLFL showed a protein stability index of 0.69 ± 0.035.
In the case of APPPAYGPPPPP, the protein stability index is reported as 0.692 ± 0.044.
For APPPPFCHAPTS, the protein stability index was 0.6366 ± 0.00082.
APPPSLHCLRLP was tested, and the protein stability index was 0.725 ± 0.071.
Work on APPRLSPLPPPP yielded a protein stability index of 0.6848 ± 0.0065.
Sequence APPRPPPPSPIP has a protein stability index of 0.726 ± 0.057.
APPRSPLFSSLF gave a protein stability index of 0.638 ± 0.01.
In the case of APPTPPHPRPSS, the protein stability index is reported as 0.7269 ± 0.0036.
Work on APPTTPPPGTHP yielded a protein stability index of 0.696 ± 0.069.
Work on APRPAPRPTPLG yielded a protein stability index of 0.706 ± 0.051.
For APRPPPCPRPGT, the protein stability index was 0.7499 ± 0.003.
APRPRSPLLPPA showed a protein stability index of 0.648 ± 0.019.
With APSPLLPPHSPP the protein stability index was 0.612 ± 0.043.
Work on APSVSHAPSRLL yielded a protein stability index of 0.706 ± 0.023.
With APVHPPPGFLLP the protein stability index was 0.695 ± 0.023.
APVTFDKSHVST showed a protein stability index of 0.669 ± 0.031.
For APYPVSRGLLGF, the protein stability index was 0.656 ± 0.057.
For AQAEGLYRGTAD, the protein stability index was 0.657 ± 0.011.
AQAPVDPTPVPL gave a protein stability index of 0.658 ± 0.11.
AQCAFIKAGVTW gave a protein stability index of 0.686 ± 0.051.
With AQCDAVPFMFCV the protein stability index was 0.663 ± 0.025.
AQPFATTGGGLV was tested, and the protein stability index was 0.69 ± 0.24.
AQPRGLLVCPFL gave a protein stability index of 0.664 ± 0.044.
In the case of AQRGSTAASAGG, the protein stability index is reported as 0.683 ± 0.07.
With AQTRSVGWEFGY the protein stability index was 0.685 ± 0.0093.
ARASPPARRSPT was tested, and the protein stability index was 0.673 ± 0.058.
ARCLTGFYSFTF showed a protein stability index of 0.794 ± 0.019.
With AREEGRQNQGMP the protein stability index was 0.665 ± 0.042.
ARFGYYLGLGRC was tested, and the protein stability index was 0.748 ± 0.065.
ARGGIGTCSWGG was tested, and the protein stability index was 0.727 ± 0.0095.
ARHPLCLPVLLT gave a protein stability index of 0.548 ± 0.02.
Work on ARIWLGSTSVSR yielded a protein stability index of 0.739 ± 0.14.
ARLPLPGSPPFS showed a protein stability index of 0.719 ± 0.0029.
ARLPTYLAAPPP gave a protein stability index of 0.726 ± 0.089.
In the case of ARMPQVSEIALC, the protein stability index is reported as 0.6612 ± 0.00024.
Work on ARQHGLELTNPR yielded a protein stability index of 0.678 ± 0.015.
In the case of ARRAAPRRPPSD, the protein stability index is reported as 0.689 ± 0.047.
For ARRGAGGGHKGD, the protein stability index was 0.673 ± 0.038.
For ARRPAESHGTTI, the protein stability index was 0.716 ± 0.012.
For ARRSAGGAAVPG, the protein stability index was 0.624 ± 0.0098.
Sequence ARSHSPPPPRPP has a protein stability index of 0.6723 ± 0.0029.
With ARSRPSILSGPE the protein stability index was 0.689 ± 0.062.
With ARVAPPWRSTRA the protein stability index was 0.683 ± 0.049.
ASATCQKGSIPR gave a protein stability index of 0.677 ± 0.036.
ASCPLHFTDIRP showed a protein stability index of 0.679 ± 0.018.
